Measured values published in article PMC10540216, “Activity Guided Azide-methyllysine Photo-trapping for Substrate Profiling of Lysine Demethylases” (Journal of the American Chemical Society, 2023).

B1: KDM4A_HUMAN (protein, UniProt O75164 2-1064, looked up)
Lysine-specific demethylase 4A: ASESETLNPSARIMTFYPTMEEFRNFSRYIAYIESQGAHRAGLAKVVPPKEWKPRASYDDIDDLVIPAPIQQLVTGQSGLFTQYNIQKKAMTVREFRKIANSDKYCTPRYSEFEELERKYWKNLTFNPPIYGADVNGTLYEKHVDEWNIGRLRTILDLVEKESGITIEGVNTPYLYFGMWKTSFAWHTEDMDLYSINYLHFGEPKSWYSVPPEHGKRLERLAKGFFPGSAQSCEAFLRHKMTLISPLMLKKYGIPFDKVTQEAGEFMITFPYGYHAGFNHGFNCAESTNFATRRWIEYGKQAVLCSCRKDMVKISMDVFVRKFQPERYKLWKAGKDNTVIDHTLPTPEAAEFLKESELPPRAGNEEECPEEDMEGVEDGEEGDLKTSLAKHRIGTKRHRVCLEIPQEVSQSELFPKEDLSSEQYEMTECPAALAPVRPTHSSVRQVEDGLTFPDYSDSTEVKFEELKNVKLEEEDEEEEQAAAALDLSVNPASVGGRLVFSGSKKKSSSSLGSGSSRDSISSDSETSEPLSCRAQGQTGVLTVHSYAKGDGRVTVGEPCTRKKGSAARSFSERELAEVADEYMFSLEENKKSKGRRQPLSKLPRHHPLVLQECVSDDETSEQLTPEEEAEETEAWAKPLSQLWQNRPPNFEAEKEFNETMAQQAPHCAVCMIFQTYHQVEFGGFNQNCGNASDLAPQKQRTKPLIPEMCFTSTGCSTDINLSTPYLEEDGTSILVSCKKCSVRVHASCYGVPPAKASEDWMCSRCSANALEEDCCLCSLRGGALQRANDDRWVHVSCAVAILEARFVNIAERSPVDVSKIPLPRFKLKCIFCKKRRKRTAGCCVQCSHGRCPTAFHVSCAQAAGVMMQPDDWPFVVFITCFRHKIPNLERAKGALQSITAGQKVISKHKNGRFYQCEVVRLTTETFYEVNFDDGSFSDNLYPEDIVSQDCLQFGPPAEGEVVQVRWTDGQVYGAKFVASHPIQMYQVEFEDGSQLVVKRDDVYTLDEELPKRVKSRLSVASDMRFNEIFTEKEVKQEKKRQRVINSRYREDYIEPALYRAIME
B2: RBMX_HUMAN (protein, UniProt P38159 1-391, looked up)
RNA-binding motif protein, X …: MVEADRPGKLFIGGLNTETNEKALEAVFGKYGRIVEVLLMKDRETNKSRGFAFVTFESPADAKDAARDMNGKSLDGKAIKVEQATKPSFESGRRGPPPPPRSRGPPRGLRGGRGGSGGTRGPPSRGGHMDDGGYSMNFNMSSSRGPLPVKRGPPPRSGGPPPKRSAPSGPVRSSSGMGGRAPVSRGRDSYGGPPRREPLPSRRDVYLSPRDDGYSTKDSYSSRDYPSSRDTRDYAPPPRDYTYRDYGHSSSRDDYPSRGYSDRDGYGRDRDYSDHPSGGSYRDSYESYGNSRSAPPTRGPPPSYGGSSRYDDYSSSRDGYGGSRDSYSSSRSDLYSSGRDRVGRQERGLPPSMERGYPPPRDSYSSSSRGAPRGGGRGGSRSDRGGGRSRY
B3: CPSF1_HUMAN (protein, UniProt Q10570 1-1443, looked up)
Cleavage and polyadenylation …: MYAVYKQAHPPTGLEFSMYCNFFNNSERNLVVAGTSQLYVYRLNRDAEALTKNDRSTEGKAHREKLELAASFSFFGNVMSMASVQLAGAKRDALLLSFKDAKLSVVEYDPGTHDLKTLSLHYFEEPELRDGFVQNVHTPRVRVDPDGRCAAMLVYGTRLVVLPFRRESLAEEHEGLVGEGQRSSFLPSYIIDVRALDEKLLNIIDLQFLHGYYEPTLLILFEPNQTWPGRVAVRQDTCSIVAISLNITQKVHPVIWSLTSLPFDCTQALAVPKPIGGVVVFAVNSLLYLNQSVPPYGVALNSLTTGTTAFPLRTQEGVRITLDCAQATFISYDKMVISLKGGEIYVLTLITDGMRSVRAFHFDKAAASVLTTSMVTMEPGYLFLGSRLGNSLLLKYTEKLQEPPASAVREAADKEEPPSKKKRVDATAGWSAAGKSVPQDEVDEIEVYGSEAQSGTQLATYSFEVCDSILNIGPCANAAVGEPAFLSEEFQNSPEPDLEIVVCSGHGKNGALSVLQKSIRPQVVTTFELPGCYDMWTVIAPVRKEEEDNPKGEGTEQEPSTTPEADDDGRRHGFLILSREDSTMILQTGQEIMELDTSGFATQGPTVFAGNIGDNRYIVQVSPLGIRLLEGVNQLHFIPVDLGAPIVQCAVADPYVVIMSAEGHVTMFLLKSDSYGGRHHRLALHKPPLHHQSKVITLCLYRDLSGMFTTESRLGGARDELGGRSGPEAEGLGSETSPTVDDEEEMLYGDSGSLFSPSKEEARRSSQPPADRDPAPFRAEPTHWCLLVRENGTMEIYQLPDWRLVFLVKNFPVGQRVLVDSSFGQPTTQGEARREEATRQGELPLVKEVLLVALGSRQSRPYLLVHVDQELLIYEAFPHDSQLGQGNLKVRFKKVPHNINFREKKPKPSKKKAEGGGAEEGAGARGRVARFRYFEDIYGYSGVFICGPSPHWLLVTGRGALRLHPMAIDGPVDSFAPFHNVNCPRGFLYFNRQGELRISVLPAYLSYDAPWPVRKIPLRCTAHYVAYHVESKVYAVATSTNTPCARIPRMTGEEKEFETIERDERYIHPQQEAFSIQLISPVSWEAIPNARIELQEWEHVTCMKTVSLRSEETVSGLKGYVAAGTCLMQGEEVTCRGRILIMDVIEVVPEPGQPLTKNKFKVLYEKEQKGPVTALCHCNGHLVSAIGQKIFLWSLRASELTGMAFIDTQLYIHQMISVKNFILAADVMKSISLLRYQEESKTLSLVSRDAKPLEVYSVDFMVDNAQLGFLVSDRDRNLMVYMYLPEAKESFGGMRLLRRADFHVGAHVNTFWRTPCRGATEGLSKKSVVWENKHITWFATLDGGIGLLLPMQEKTYRRLLMLQNALTTMLPHHAGLNPRAFRMLHVDRRTLQNAVRNVLDGELLNRYLYLSTMERSELAKKIGTTPDIILDDLLETDRVTAHF
B4: MPCP_HUMAN (protein, UniProt Q00325 50-362, looked up)
Solute carrier family 25 …: AVEEQYSCDYGSGRFFILCGLGGIISCGTTHTALVPLDLVKCRMQVDPQKYKGIFNGFSVTLKEDGVRGLAKGWAPTFLGYSMQGLCKFGFYEVFKVLYSNMLGEENTYLWRTSLYLAASASAEFFADIALAPMEAAKVRIQTQPGYANTLRDAAPKMYKEEGLKAFYKGVAPLWMRQIPYTMMKFACFERTVEALYKFVVPKPRSECSKPEQLVVTFVAGYIAGVFCAIVSHPADSVVSVLNKEKGSSASLVLKRLGFKGVWKGLFARIIMIGTLTALQWFIYDSVKVYFRLPRPPPPEMPESLKKKLGLTQ
B5: THIO_HUMAN (protein, UniProt P10599 2-105, looked up)
Thioredoxin: VKQIESKTAFQEALDAAGDKLVVVDFSATWCGPCKMIKPFFHSLSEKYSNVIFLEVDVDDCQDVASECEVKCMPTFQFFKKGQKVGEFSGANKEKLEATINELV
B6: EF1A1_HUMAN (protein, UniProt P68104 2-462, looked up)
Elongation factor 1-alpha 1: GKEKTHINIVVIGHVDSGKSTTTGHLIYKCGGIDKRTIEKFEKEAAEMGKGSFKYAWVLDKLKAERERGITIDISLWKFETSKYYVTIIDAPGHRDFIKNMITGTSQADCAVLIVAAGVGEFEAGISKNGQTREHALLAYTLGVKQLIVGVNKMDSTEPPYSQKRYEEIVKEVSTYIKKIGYNPDTVAFVPISGWNGDNMLEPSANMPWFKGWKVTRKDGNASGTTLLEALDCILPPTRPTDKPLRLPLQDVYKIGGIGTVPVGRVETGVLKPGMVVTFAPVNVTTEVKSVEMHHEALSEALPGDNVGFNVKNVSVKDVRRGNVAGDSKNDPPMEAAGFTAQVIILNHPGQISAGYAPVLDCHTAHIACKFAELKEKIDRRSGKKLEDGPKFLKSGDAAIVDMVPGKPMCVESFSDYPPLGRFAVRDMRQTVAVGVIKAVDKKAAGAGKVTKSAQKAQKAK
B7: ADT2_HUMAN (protein, UniProt P05141 1-298, looked up)
ADP/ATP translocase 2: MTDAAVSFAKDFLAGGVAAAISKTAVAPIERVKLLLQVQHASKQITADKQYKGIIDCVVRIPKEQGVLSFWRGNLANVIRYFPTQALNFAFKDKYKQIFLGGVDKRTQFWLYFAGNLASGGAAGATSLCFVYPLDFARTRLAADVGKAGAEREFRGLGDCLVKIYKSDGIKGLYQGFNVSVQGIIIYRAAYFGIYDTAKGMLPDPKNTHIVISWMIAQTVTAVAGLTSYPFDTVRRRMMMQSGRKGTDIMYTGTLDCWRKIARDEGGKAFFKGAWSNVLRGMGGAFVLVLYDEIKKYT
B8: KDM4C_HUMAN (protein, UniProt Q9H3R0 1-1056, looked up)
Lysine-specific demethylase 4C: MEVAEVESPLNPSCKIMTFRPSMEEFREFNKYLAYMESKGAHRAGLAKVIPPKEWKPRQCYDDIDNLLIPAPIQQMVTGQSGLFTQYNIQKKAMTVKEFRQLANSGKYCTPRYLDYEDLERKYWKNLTFVAPIYGADINGSIYDEGVDEWNIARLNTVLDVVEEECGISIEGVNTPYLYFGMWKTTFAWHTEDMDLYSINYLHFGEPKSWYAIPPEHGKRLERLAQGFFPSSSQGCDAFLRHKMTLISPSVLKKYGIPFDKITQEAGEFMITFPYGYHAGFNHGFNCAESTNFATVRWIDYGKVAKLCTCRKDMVKISMDIFVRKFQPDRYQLWKQGKDIYTIDHTKPTPASTPEVKAWLQRRRKVRKASRSFQCARSTSKRPKADEEEEVSDEVDGAEVPNPDSVTDDLKVSEKSEAAVKLRNTEASSEEESSASRMQVEQNLSDHIKLSGNSCLSTSVTEDIKTEDDKAYAYRSVPSISSEADDSIPLSSGYEKPEKSDPSELSWPKSPESCSSVAESNGVLTEGEESDVESHGNGLEPGEIPAVPSGERNSFKVPSIAEGENKTSKSWRHPLSRPPARSPMTLVKQQAPSDEELPEVLSIEEEVEETESWAKPLIHLWQTKSPNFAAEQEYNATVARMKPHCAICTLLMPYHKPDSSNEENDARWETKLDEVVTSEGKTKPLIPEMCFIYSEENIEYSPPNAFLEEDGTSLLISCAKCCVRVHASCYGIPSHEICDGWLCARCKRNAWTAECCLCNLRGGALKQTKNNKWAHVMCAVAVPEVRFTNVPERTQIDVGRIPLQRLKLKCIFCRHRVKRVSGACIQCSYGRCPASFHVTCAHAAGVLMEPDDWPYVVNITCFRHKVNPNVKSKACEKVISVGQTVITKHRNTRYYSCRVMAVTSQTFYEVMFDDGSFSRDTFPEDIVSRDCLKLGPPAEGEVVQVKWPDGKLYGAKYFGSNIAHMYQVEFEDGSQIAMKREDIYTLDEELPKRVKARFSTASDMRFEDTFYGADIIQGERKRQRVLSSRFKNEYVADPVYRTFLKSSFQKKCQKRQ

tested on: KDM4A-I71AzF; test: CASI: photo-crosslinking with HEK293T cell extracts, StrepTactin enrichment and LC-MS/MS proteomics; assay type: binding, human; settings: sheet "Final results but with 0.01";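 also: lysates from HEK293T cells pretreated with a KDM4 inhibitor to raise proteome methylation, affinity-purified after ±UV, gel-resolved, trypsin-digested, with exclusive unique peptides per protein averaged per condition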

First: B1
Second: B2
The “Fold change (+UV/-UV)” value of the first is lower: 1.184 for the first, 200 for the second.

Compared with B3, B4 is higher in “Fold change (+UV/-UV)” value: 0.6923 for the first, 1 for the second.

Going from B5 to B6, the “Fold change (+UV/-UV)” value rises from 0.5 to 0.9444.

Going from B7 to B8, the “Fold change (+UV/-UV)” value rises from 0.8333 to 1.333.
